Source: patent US20220031840A1, “Method of Treatment” (HaemaLogix Pty Ltd, priority 2018, published 2022)

Columns and labels:
serum M protein = assay: Serum M protein after kappamab; format: in vivo, human
[1] = Phase 1 safety and tolerability of single IV infusion of kappamab (adverse events, laboratory, ECG)
Description: Patients on maintenance therapy (thalidomide or lenalidomide) were also eligible for inclusion. Patients were excluded from the study if their serum κFLC was greater than 250 mg/L.
The pharmacodynamics of serum κFLC was also assessed. Drug-target modulation of cell signalling pathways was determined by measuring pro-inflammatory and anti-inflammatory cytokines, chemokines, and growth factors in patient serum at specific time intervals.
After providing HREC-approved consent, patients were screened and assessed for study eligibility.
Within each dose cohort only 1 patient per week was to be treated. […] Premedication was not mandated, however, paracetamol (acetaminophen), corticosteroids, and antihistamines were allowed for the treatment of infusion reactions.
Evaluation of safety and tolerability during treatment included vital signs, physical examination, electrocardiogram (ECG), haematology assessments, clinical chemistry, C-reactive protein, β2-microglobulin, immunoglobulin quantification, urinalysis, creatinine clearance, collection of adverse events (AEs), and drug-induced toxicity. All AEs were graded using the Cancer Therapy Evaluation Program Common Terminology Criteria for Adverse Events, version 3.0.

serum λFLC = assay: Serum λFLC (FreeLite assay); format: in vivo, human; settings: throughout the study
Description: Serum FLC levels were quantified using the FreeLite™ assay (The Binding Site Group Ltd, Birmingham, UK). […] Twenty-four-hour urine collection for urine protein electrophoresis immunofixation, urine FLC measurement (FreeLite™ assay), and creatinine clearance were collected on the day of infusion and on Day 45.

[2] = All treatment-emergent AEs, Grade 1-3, 0.3 mg/kg (N = 3)
[3] = All treatment-emergent AEs, Grade 1-3, 1.0 mg/kg (N = 3)
[4] = All treatment-emergent AEs, Grade 1-3, 3.0 mg/kg (N = 3)
[5] = All treatment-emergent AEs, Grade 1-3, 10 mg/kg (N = 3)
[6] = All treatment-emergent AEs, Grade 1-3, Overall (N = 12)
[7] = All treatment-emergent AEs, Grade 4/5, 0.3 mg/kg (N = 3)
[8] = All treatment-emergent AEs, Grade 4/5, 1.0 mg/kg (N = 3)
[9] = All treatment-emergent AEs, Grade 4/5, 3.0 mg/kg (N = 3)
[10] = All treatment-emergent AEs, Grade 4/5, 10 mg/kg (N = 3)
[11] = All treatment-emergent AEs, Grade 4/5, Overall (N = 12)
[12] = All treatment-emergent AEs, Total, 0.3 mg/kg (N = 3)
[13] = All treatment-emergent AEs, Total, 1.0 mg/kg (N = 3)
[14] = All treatment-emergent AEs, Total, 3.0 mg/kg (N = 3)
[15] = All treatment-emergent AEs, Total, 10 mg/kg (N = 3)
[16] = All treatment-emergent AEs, Total, Overall (N = 12)
[17] = Possibly, probably, or definitely related AEs, Grade 1-3, 0.3 mg/kg (N = 3)
[18] = Possibly, probably, or definitely related AEs, Grade 1-3, 1.0 mg/kg (N = 3)
[19] = Possibly, probably, or definitely related AEs, Grade 1-3, 3.0 mg/kg (N = 3)
[20] = Possibly, probably, or definitely related AEs, Grade 1-3, 10 mg/kg (N = 3)
[21] = Possibly, probably, or definitely related AEs, Grade 1-3, Overall (N = 12)
[22] = Possibly, probably, or definitely related AEs, Grade 4/5, 0.3 mg/kg (N = 3)
[23] = Possibly, probably, or definitely related AEs, Grade 4/5, 1.0 mg/kg (N = 3)
[24] = Possibly, probably, or definitely related AEs, Grade 4/5, 3.0 mg/kg (N = 3)
[25] = Possibly, probably, or definitely related AEs, Grade 4/5, 10 mg/kg (N = 3)
[26] = Possibly, probably, or definitely related AEs, Grade 4/5, Overall (N = 12)
[27] = Possibly, probably, or definitely related AEs, Total, 0.3 mg/kg (N = 3)
[28] = Possibly, probably, or definitely related AEs, Total, 1.0 mg/kg (N = 3)
[29] = Possibly, probably, or definitely related AEs, Total, 3.0 mg/kg (N = 3)
[30] = Possibly, probably, or definitely related AEs, Total, 10 mg/kg (N = 3)
[31] = Possibly, probably, or definitely related AEs, Total, Overall (N = 12)
[32] = Related AEs by System Organ Class, Overall total, 0.3 mg/kg (N = 3)
[33] = Related AEs by System Organ Class, Overall total, 1.0 mg/kg (N = 3)
[34] = Related AEs by System Organ Class, Overall total, 3.0 mg/kg (N = 3)
[35] = Related AEs by System Organ Class, Overall total, 10 mg/kg (N = 3)
[36] = Related AEs by System Organ Class, Overall total, Overall (N = 12)
[37] = Related AEs: Dyspnea, 10 mg/kg (N = 3)
[38] = Related AEs: Dyspnea, Overall (N = 12)
[39] = Related AEs: Eructation, 10 mg/kg (N = 3)
[40] = Related AEs: Eructation, Overall (N = 12)
[41] = Related AEs: Flushing, 10 mg/kg (N = 3)
[42] = Related AEs: Flushing, Overall (N = 12)
[43] = Related AEs: Gastrointestinal disorders, Total, 10 mg/kg (N = 3)
[44] = Related AEs: Gastrointestinal disorders, Total, Overall (N = 12)
[45] = Related AEs: Musculoskeletal and connective tissue disorders, Total, 10 mg/kg (N = 3)
[46] = Related AEs: Musculoskeletal and connective tissue disorders, Total, Overall (N = 12)
[47] = Related AEs: Nausea, 10 mg/kg (N = 3)
[48] = Related AEs: Nausea, Overall (N = 12)
[49] = Related AEs: Pain in extremity, 10 mg/kg (N = 3)
[50] = Related AEs: Pain in extremity, Overall (N = 12)
[51] = Related AEs: Respiratory, thoracic & mediastinal disorders, Total, 10 mg/kg (N = 3)
[52] = Related AEs: Respiratory, thoracic & mediastinal disorders, Total, Overall (N = 12)
[53] = Related AEs: Vascular disorders, Total, 10 mg/kg (N = 3)
[54] = Related AEs: Vascular disorders, Total, Overall (N = 12)

kappamab: humanized form of K121 anti-KMA antibody; VH SEQ ID NO: 1, VL SEQ ID NO: 2
Patients with minor dose-related decreases in serum M protein (serum M protein; 7/11 patients): 64% | Serum M protein response versus IMWG response criteria (serum M protein; in vivo): did not meet the IMWG response criteria | DLT or discontinuation due to an AE ([1]; 0.3-10 mg/kg): no patients who experienced a DLT or discontinued the study due to an AE | Patients with nausea (most frequently reported AE) ([1]; 2/12 patients): 17% | Patients who experienced study drug-related AEs ([1]; 2/12 patients, at the highest dose level (10 mg/kg)): 17% | AEs that were grade 1 or 2 ([1]; 17/18 events): 94% | Number of patients with AEs (%) [1, 2]: 2 (66%) | number of AEs [1, 2]: 4 | Number of patients with AEs (%) [1, 3]: 3 (100%) | number of AEs [1, 3]: 3 | Number of patients with AEs (%) [1, 4]: 1 (33%) | number of AEs [1, 4]: 2 | Number of patients with AEs (%) [1, 5]: 2 (67%) | number of AEs [1, 5]: 9 | Number of patients with AEs (%) [1, 6]: 8 (67%) | number of AEs [1, 6]: 18 | Number of patients with AEs (%) [1, 7]: 0 (0%) | number of AEs [1, 7]: 0 | Number of patients with AEs (%) [1, 8]: 0 (0%) | number of AEs [1, 8]: 0 | Number of patients with AEs (%) [1, 9]: 0 (0%) | number of AEs [1, 9]: 0 | Number of patients with AEs (%) [1, 10]: 0 (0%) | number of AEs [1, 10]: 0 | Number of patients with AEs (%) [1, 11]: 0 (0%) | number of AEs [1, 11]: 0 | Number of patients with AEs (%) [1, 12]: 2 (67%) | number of AEs [1, 12]: 4 | Number of patients with AEs (%) [1, 13]: 3 (100%) | number of AEs [1, 13]: 3 | Number of patients with AEs (%) [1, 14]: 1 (33%) | number of AEs [1, 14]: 2 | Number of patients with AEs (%) [1, 15]: 2 (67%) | number of AEs [1, 15]: 9 | Number of patients with AEs (%) [1, 16]: 8 (67%) | number of AEs [1, 16]: 18 | Patients who experienced treatment-emergent AEs ([1]; Eight of the 12 patients, all doses): 67% | Number of patients with AEs (%) [1, 17]: 0 (0%) | number of AEs [1, 17]: 0 | Number of patients with AEs (%) [1, 18]: 0 (0%) | number of AEs [1, 18]: 0 | Number of patients with AEs (%) [1, 19]: 0 (0%) | number of AEs [1, 19]: 0 | Number of patients with AEs (%) [1, 20]: 2 (67%) | number of AEs [1, 20]: 6 | Number of patients with AEs (%) [1, 21]: 2 (17%) | number of AEs [1, 21]: 6 | Number of patients with AEs (%) [1, 22]: 0 (0%) | number of AEs [1, 22]: 0 | Number of patients with AEs (%) [1, 23]: 0 (0%) | number of AEs [1, 23]: 0 | Number of patients with AEs (%) [1, 24]: 0 (0%) | number of AEs [1, 24]: 0 | Number of patients with AEs (%) [1, 25]: 0 (0%) | number of AEs [1, 25]: 0 | Number of patients with AEs (%) [1, 26]: 0 (0%) | number of AEs [1, 26]: 0 | Number of patients with AEs (%) [1, 27]: 0 (0%) | number of AEs [1, 27]: 0 | Number of patients with AEs (%) [1, 28]: 0 (0%) | number of AEs [1, 28]: 0 | Number of patients with AEs (%) [1, 29]: 0 (0%) | number of AEs [1, 29]: 0 | Number of patients with AEs (%) [1, 30]: 2 (67%) | number of AEs [1, 30]: 6 | Number of patients with AEs (%) [1, 31]: 2 (17%) | number of AEs [1, 31]: 6 | Number of patients with AEs (%) [1, 32]: 0[0] | number of AEs [1, 32]: 0[0] | Number of patients with AEs (%) [1, 33]: 0[0] | number of AEs [1, 33]: 0[0] | Number of patients with AEs (%) [1, 34]: 0[0] | number of AEs [1, 34]: 0[0] | Number of patients with AEs (%) [1, 35]: 2 (67%) | number of AEs [1, 35]: 6 | Number of patients with AEs (%) [1, 36]: 2 (17%) | number of AEs [1, 36]: 6 | Number of patients with AEs (%) [1, 37]: 1(33%) | number of AEs [1, 37]: 1 | Number of patients with AEs (%) [1, 38]: 1 (8.3%) | number of AEs [1, 38]: 1 | Number of patients with AEs (%) [1, 39]: 1 (33%) | number of AEs [1, 39]: 1 | Number of patients with AEs (%) [1, 40]: 1 (8.3%) | number of AEs [1, 40]: 1 | Number of patients with AEs (%) [1, 41]: 1 (33%) | number of AEs [1, 41]: 1 | Number of patients with AEs (%) [1, 42]: 1 (8.3%) | number of AEs [1, 42]: 1 | Number of patients with AEs (%) [1, 43]: 2 (67%) | number of AEs [1, 43]: 3 | Number of patients with AEs (%) [1, 44]: 2 (17%) | number of AEs [1, 44]: 3 | Number of patients with AEs (%) [1, 45]: 1 (33%) | number of AEs [1, 45]: 1 | Number of patients with AEs (%) [1, 46]: 1 (8.3%) | number of AEs [1, 46]: 1 | Number of patients with AEs (%) [1, 47]: 2 (67%) | number of AEs [1, 47]: 2 | Number of patients with AEs (%) [1, 48]: 2 (8.3%) | number of AEs [1, 48]: 2 | Number of patients with AEs (%) [1, 49]: 1 (33%) | number of AEs [1, 49]: 1 | Number of patients with AEs (%) [1, 50]: 1 (8.3%) | number of AEs [1, 50]: 1 | Number of patients with AEs (%) [1, 51]: 1 (33%) | number of AEs [1, 51]: 1 | Number of patients with AEs (%) [1, 52]: 1 (8.3%) | number of AEs [1, 52]: 1 | Number of patients with AEs (%) [1, 53]: 1 (33%) | number of AEs [1, 53]: 1 | Number of patients with AEs (%) [1, 54]: 1 (8.3%) | number of AEs [1, 54]: 1 | Time to resolution of infusion reaction symptoms ([1]; after infusion was stopped, without treatment): ≤ 30 min | Immune complex formation or serum sickness ([1]; any patient): no evidence of immune complex formation or serum sickness | Deaths or other serious AEs ([1]; during the study): no deaths or other serious AEs | Serum immunoglobulin levels, clinical chemistry, haematology, urinalysis ([1]; during the study): no dose-related trends | ECG QTc intervals ([1]; in vivo): no prolongation of QTc intervals | ECOG performance status scores ([1]; in vivo): no effect | Lactate dehydrogenase levels or vital signs ([1]; in vivo): No changes from baseline | Serum C-reactive protein levels ([1]; in vivo): no apparent dose-related trend | Infusion reaction ([1]; one patient, 10 mg/kg, flushing, dyspnea, nausea after start of infusion): grade 1 infusion reaction | Maximum tolerated dose ([1]; patients treated up to 10 mg/kg): No maximum tolerated dose of kappamab was defined | Kidney function ([1]; serum blood urea nitrogen, serum creatinine, creatinine clearance): no drug-related effects on kidney function | Serum λFLC concentration (serum λFLC): no apparent change
